Tests used:
[1] = target: T1, 5HT3a (Homo sapiens, UniProt P46098); assay: Ion channel panel (IonWorks Barracuda): 5HT3a; assay type: cell-based
T1 construct: host or cells: HEK293 or CHO
T1 sequence (P46098 whole entry, looked up): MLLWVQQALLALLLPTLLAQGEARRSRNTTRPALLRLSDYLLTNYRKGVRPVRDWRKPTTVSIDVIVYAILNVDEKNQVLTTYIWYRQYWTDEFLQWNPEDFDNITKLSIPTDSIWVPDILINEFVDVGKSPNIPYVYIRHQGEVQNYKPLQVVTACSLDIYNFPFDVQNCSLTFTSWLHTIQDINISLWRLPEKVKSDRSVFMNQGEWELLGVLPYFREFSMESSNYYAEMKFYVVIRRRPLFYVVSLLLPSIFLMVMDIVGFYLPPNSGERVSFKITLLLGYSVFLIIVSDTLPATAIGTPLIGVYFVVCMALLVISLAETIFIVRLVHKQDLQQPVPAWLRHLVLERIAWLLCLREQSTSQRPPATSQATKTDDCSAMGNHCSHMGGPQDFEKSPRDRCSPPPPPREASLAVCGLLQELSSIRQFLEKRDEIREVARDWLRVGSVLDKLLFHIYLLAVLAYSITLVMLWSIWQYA
In short: (§1)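 Peptides were tested in duplicate at final 20 μM and 200 nM, with concentration set by amino acid analysis, in HEPES-buffered saline. They were applied for at least 5 min to HEK293 or CHO cells transfected with each channel. Currents were expressed as % inhibition, 1-(Ipeptide/Icontrol)×100, or % activation, Ipeptide/Icontrol×100, against a channel-matched reference compound.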

[2] = target: T2, α3β4 (Homo sapiens, UniProt P30926+P32297); assay: Ion channel panel (IonWorks Barracuda): α3β4; assay type: cell-based; conditions: 100% = no change, <100% = inhibition
T2 construct: host or cells: HEK293 or CHO
In short: as §1

[3] = target: T3, α4β2 (Homo sapiens, UniProt P17787+P43681); assay: Ion channel panel (IonWorks Barracuda): α4β2; assay type: cell-based; conditions: 100% = no change, <100% = inhibition
T3 construct: host or cells: HEK293 or CHO
In short: as §1

[4] = target: T4, Cav2.1 (Homo sapiens, UniProt O00555); assay: cell-based; conditions: 100% = no change, <100% = inhibition
T4 construct: host or cells: HEK293 or CHO
In short: as §1

[5] = target: T5, Cav2.2 (Homo sapiens, UniProt Q00975); assay: cell-based; conditions: 100% = no change, <100% = inhibition
T5 construct: host or cells: HEK293 or CHO
In short: as §1

[6] = target: T6, Kv2.1 (Homo sapiens, UniProt Q14721); assay: cell-based; conditions: 100% = no change, <100% = inhibition
T6 construct: host or cells: HEK293 or CHO
In short: as §1

[7] = tested on: GABA; assay: Ion channel panel (IonWorks Barracuda): GABA; assay type: cell-based; conditions: 100% = no change, <100% = inhibition
In short: as §1

[8] = target: Nav1.5 (Homo sapiens, UniProt Q14524); assay: in vitro; conditions: 100% = no change; for Activity of Nav1.5 with peptide, expressed as a percentage of the reference compound: peptide at 0.2 μM; for Activity of Nav1.5 with peptide (percentage of the reference compound): peptide at 20 μM
Nav1.5, sequence (Q14524 whole entry): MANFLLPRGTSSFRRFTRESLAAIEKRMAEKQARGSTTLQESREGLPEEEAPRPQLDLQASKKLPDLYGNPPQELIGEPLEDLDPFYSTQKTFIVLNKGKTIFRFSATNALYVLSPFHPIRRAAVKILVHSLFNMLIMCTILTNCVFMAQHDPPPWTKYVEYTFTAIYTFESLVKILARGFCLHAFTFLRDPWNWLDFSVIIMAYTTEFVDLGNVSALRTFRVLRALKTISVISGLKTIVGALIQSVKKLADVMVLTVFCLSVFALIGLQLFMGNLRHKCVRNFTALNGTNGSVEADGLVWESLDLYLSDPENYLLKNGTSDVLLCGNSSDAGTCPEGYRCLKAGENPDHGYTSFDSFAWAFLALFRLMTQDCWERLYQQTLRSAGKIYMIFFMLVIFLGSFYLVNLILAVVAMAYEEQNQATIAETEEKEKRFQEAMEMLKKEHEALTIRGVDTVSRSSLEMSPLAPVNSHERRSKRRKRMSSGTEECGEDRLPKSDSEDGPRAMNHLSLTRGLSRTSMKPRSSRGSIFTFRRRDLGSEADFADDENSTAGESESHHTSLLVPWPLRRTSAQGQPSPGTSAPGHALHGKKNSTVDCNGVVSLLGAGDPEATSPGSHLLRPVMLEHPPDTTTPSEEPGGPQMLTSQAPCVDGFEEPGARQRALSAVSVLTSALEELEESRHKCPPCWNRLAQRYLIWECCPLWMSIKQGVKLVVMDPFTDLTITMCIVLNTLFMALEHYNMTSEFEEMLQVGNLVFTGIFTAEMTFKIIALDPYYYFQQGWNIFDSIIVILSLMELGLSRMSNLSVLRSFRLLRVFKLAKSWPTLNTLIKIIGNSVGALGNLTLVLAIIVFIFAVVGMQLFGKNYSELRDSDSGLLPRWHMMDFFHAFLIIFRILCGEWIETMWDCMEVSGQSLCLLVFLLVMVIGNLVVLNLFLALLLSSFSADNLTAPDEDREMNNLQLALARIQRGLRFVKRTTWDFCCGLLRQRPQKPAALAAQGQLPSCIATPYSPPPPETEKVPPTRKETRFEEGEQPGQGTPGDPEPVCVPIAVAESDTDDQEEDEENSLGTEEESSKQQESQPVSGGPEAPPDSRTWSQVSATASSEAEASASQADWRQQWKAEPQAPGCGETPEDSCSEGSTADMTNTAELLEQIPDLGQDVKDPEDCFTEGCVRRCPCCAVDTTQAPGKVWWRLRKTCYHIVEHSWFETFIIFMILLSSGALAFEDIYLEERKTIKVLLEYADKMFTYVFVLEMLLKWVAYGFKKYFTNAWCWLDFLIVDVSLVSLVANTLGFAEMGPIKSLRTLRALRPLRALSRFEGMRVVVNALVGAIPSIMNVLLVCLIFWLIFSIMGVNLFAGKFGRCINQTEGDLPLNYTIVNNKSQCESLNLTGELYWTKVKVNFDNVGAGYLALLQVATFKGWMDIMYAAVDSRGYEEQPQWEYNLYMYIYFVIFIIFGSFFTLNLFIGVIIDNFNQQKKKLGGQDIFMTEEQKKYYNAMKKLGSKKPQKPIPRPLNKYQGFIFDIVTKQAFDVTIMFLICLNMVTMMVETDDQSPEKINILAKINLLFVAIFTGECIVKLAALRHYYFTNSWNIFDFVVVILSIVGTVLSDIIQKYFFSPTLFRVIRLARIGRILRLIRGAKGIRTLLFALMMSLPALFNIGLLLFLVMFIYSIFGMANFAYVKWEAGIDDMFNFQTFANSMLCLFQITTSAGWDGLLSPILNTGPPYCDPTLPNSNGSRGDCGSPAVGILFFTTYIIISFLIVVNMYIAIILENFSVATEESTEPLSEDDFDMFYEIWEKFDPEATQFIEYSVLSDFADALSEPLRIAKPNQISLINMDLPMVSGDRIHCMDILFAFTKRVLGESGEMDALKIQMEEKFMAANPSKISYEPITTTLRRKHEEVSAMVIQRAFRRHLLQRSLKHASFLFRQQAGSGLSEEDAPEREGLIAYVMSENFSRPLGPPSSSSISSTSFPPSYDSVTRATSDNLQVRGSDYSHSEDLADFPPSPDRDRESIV
In short: as §1

[9] = target: hERG (Homo sapiens, UniProt Q12809); assay: in vitro; conditions: 100% = no change, <100% = inhibition
In short: as §1

[10] = target: T7, Kir2.1 (Homo sapiens, UniProt P63252); assay: Ion channel panel (IonWorks Barracuda): Kir2.1; assay type: cell-based; conditions: 100% = no change, <100% = inhibition
T7 construct: host or cells: HEK293 or CHO
T7 sequence (P63252 whole entry): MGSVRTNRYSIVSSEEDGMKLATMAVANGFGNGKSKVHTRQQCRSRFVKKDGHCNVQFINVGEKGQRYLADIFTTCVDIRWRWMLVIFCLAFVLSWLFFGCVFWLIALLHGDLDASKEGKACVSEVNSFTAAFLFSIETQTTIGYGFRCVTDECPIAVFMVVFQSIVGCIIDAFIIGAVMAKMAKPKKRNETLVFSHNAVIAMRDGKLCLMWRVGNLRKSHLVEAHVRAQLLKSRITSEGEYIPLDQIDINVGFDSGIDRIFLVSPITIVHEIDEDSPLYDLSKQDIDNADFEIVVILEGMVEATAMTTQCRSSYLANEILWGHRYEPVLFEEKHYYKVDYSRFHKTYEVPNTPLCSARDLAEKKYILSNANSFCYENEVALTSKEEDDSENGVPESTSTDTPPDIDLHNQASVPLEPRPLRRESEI
In short: as §1

[11] = target: T8, Kv1.1 (Homo sapiens, UniProt Q09470); assay: cell-based; assay type: cell-based; conditions: 100% = no change, <100% = inhibition
T8 construct: host or cells: HEK293 or CHO
In short: as §1

[12] = target: T9, Kv1.2 (Homo sapiens, UniProt P16389); assay: cell-based; assay type: cell-based; conditions: 100% = no change, <100% = inhibition
T9 construct: host or cells: HEK293 or CHO
In short: as §1

[13] = target: T10, Kv1.3 (Homo sapiens, UniProt P22001); assay: cell-based; assay type: cell-based; conditions: 100% = no change, <100% = inhibition
T10 construct: host or cells: HEK293 or CHO
T10 sequence (P22001 whole entry): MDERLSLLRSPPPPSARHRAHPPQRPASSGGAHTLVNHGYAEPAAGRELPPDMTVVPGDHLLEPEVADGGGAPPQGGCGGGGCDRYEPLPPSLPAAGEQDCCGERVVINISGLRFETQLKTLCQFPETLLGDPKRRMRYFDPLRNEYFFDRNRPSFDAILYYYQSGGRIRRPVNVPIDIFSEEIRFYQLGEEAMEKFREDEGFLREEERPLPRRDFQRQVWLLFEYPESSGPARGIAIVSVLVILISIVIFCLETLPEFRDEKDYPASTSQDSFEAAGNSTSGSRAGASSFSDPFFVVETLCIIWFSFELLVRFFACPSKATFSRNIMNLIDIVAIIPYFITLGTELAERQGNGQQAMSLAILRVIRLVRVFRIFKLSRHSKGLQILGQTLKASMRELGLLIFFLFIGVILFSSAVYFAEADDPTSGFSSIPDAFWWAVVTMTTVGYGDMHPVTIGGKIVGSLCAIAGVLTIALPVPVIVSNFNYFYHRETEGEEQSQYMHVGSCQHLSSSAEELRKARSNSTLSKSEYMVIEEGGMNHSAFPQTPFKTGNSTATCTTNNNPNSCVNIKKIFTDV
In short: as §1

[14] = target: T11, Nav1.7 (Homo sapiens, UniProt Q15858); assay: cell-based; assay type: cell-based; conditions: 100% = no change; for Activity of Nav1.7 with peptide, expressed as a percentage of the reference compound: peptide at 0.2 μM; for Activity of Nav1.7 with peptide (percentage of the reference compound): peptide at 20 μM
T11 construct: host or cells: HEK293 or CHO
T11 sequence (Q15858 whole entry): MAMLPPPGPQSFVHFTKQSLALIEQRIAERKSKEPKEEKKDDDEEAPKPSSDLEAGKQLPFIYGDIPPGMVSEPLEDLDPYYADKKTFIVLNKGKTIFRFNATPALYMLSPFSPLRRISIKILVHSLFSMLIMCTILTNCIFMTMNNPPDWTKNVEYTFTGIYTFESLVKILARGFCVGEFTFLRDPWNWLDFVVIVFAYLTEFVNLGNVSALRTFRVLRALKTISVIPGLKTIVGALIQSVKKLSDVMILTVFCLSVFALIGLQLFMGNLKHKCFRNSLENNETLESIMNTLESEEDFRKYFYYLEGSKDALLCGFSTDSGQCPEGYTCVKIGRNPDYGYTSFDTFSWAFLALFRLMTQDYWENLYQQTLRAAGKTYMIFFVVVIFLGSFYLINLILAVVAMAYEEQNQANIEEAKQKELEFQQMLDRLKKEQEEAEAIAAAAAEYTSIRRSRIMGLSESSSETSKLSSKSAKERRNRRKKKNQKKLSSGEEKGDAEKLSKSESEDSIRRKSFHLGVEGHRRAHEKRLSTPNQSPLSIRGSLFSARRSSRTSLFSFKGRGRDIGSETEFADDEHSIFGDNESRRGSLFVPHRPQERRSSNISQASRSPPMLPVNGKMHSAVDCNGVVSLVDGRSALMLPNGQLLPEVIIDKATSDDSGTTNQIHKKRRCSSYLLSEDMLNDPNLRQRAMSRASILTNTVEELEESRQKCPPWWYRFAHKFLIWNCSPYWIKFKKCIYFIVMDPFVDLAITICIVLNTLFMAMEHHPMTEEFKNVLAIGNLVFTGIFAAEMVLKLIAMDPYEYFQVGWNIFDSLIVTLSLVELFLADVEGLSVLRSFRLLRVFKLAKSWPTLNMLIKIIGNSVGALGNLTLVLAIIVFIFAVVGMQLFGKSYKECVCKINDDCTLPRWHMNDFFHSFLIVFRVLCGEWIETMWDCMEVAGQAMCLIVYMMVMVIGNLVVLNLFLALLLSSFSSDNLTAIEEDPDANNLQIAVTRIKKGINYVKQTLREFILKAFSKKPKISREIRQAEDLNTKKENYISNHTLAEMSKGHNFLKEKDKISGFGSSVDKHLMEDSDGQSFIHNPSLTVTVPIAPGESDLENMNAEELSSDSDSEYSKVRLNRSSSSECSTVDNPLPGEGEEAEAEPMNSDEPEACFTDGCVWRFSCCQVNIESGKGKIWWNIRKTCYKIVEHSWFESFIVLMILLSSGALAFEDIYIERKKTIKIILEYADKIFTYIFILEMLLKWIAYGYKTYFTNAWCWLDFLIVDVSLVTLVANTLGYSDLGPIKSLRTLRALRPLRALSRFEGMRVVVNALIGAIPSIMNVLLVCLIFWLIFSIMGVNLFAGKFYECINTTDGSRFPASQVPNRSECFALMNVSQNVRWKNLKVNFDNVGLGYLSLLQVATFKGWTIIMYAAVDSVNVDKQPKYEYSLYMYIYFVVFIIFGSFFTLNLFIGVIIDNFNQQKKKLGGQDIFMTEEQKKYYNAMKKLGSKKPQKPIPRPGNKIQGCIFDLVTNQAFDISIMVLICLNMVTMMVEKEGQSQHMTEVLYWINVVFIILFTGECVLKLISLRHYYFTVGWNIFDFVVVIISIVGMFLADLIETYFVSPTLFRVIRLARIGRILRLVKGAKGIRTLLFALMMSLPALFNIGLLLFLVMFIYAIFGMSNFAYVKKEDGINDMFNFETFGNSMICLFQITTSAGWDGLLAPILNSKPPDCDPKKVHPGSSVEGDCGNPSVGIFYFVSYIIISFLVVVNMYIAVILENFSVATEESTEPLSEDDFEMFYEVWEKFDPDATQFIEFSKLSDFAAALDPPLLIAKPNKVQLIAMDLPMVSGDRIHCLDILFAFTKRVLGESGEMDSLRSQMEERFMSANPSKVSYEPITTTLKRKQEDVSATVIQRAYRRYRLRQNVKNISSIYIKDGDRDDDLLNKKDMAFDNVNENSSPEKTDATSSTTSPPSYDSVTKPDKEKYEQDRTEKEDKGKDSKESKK

[15] = target: T12, NR2A (Homo sapiens, UniProt Q12879); assay: Ion channel panel (IonWorks Barracuda): NR2A; assay type: cell-based; conditions: 100% = no change, <100% = inhibition
T12 construct: host or cells: HEK293 or CHO
In short: as §1

[16] = target: T13, NR2B (Homo sapiens, UniProt Q13224); assay: Ion channel panel (IonWorks Barracuda): NR2B; assay type: cell-based; conditions: 100% = no change, <100% = inhibition
T13 construct: host or cells: HEK293 or CHO
In short: as §1

[17] = target: T14, TRPA1 (Homo sapiens, UniProt O75762); assay: Ion channel panel (IonWorks Barracuda): TRPA1; assay type: cell-based; conditions: 100% = no change, <100% = inhibition
T14 construct: host or cells: HEK293 or CHO
In short: as §1

[18] = target: T15, TRPV1 (Homo sapiens, UniProt Q8NER1); assay: Ion channel panel (IonWorks Barracuda): TRPV1; assay type: cell-based; conditions: 100% = no change, <100% = inhibition
T15 construct: host or cells: HEK293 or CHO
In short: as §1

[19] = first of two Nav1.5 columns (probably TP1)
[20] = second of two Nav1.5 columns (probably TP2)
[21] = first of two Nav1.7 columns (probably TP1)
[22] = second of two Nav1.7 columns (probably TP2)

“24 (GSSCAKPGEMCMRIKCCDGQCGCNRGTGRCFCK) [compound 24]” was tested, and the “Activity of 5HT3a with peptide (percentage of the reference compound)” value [1] was 84%, the “Activity of 5HT3a with peptide, expressed as a percentage of the reference compound” value [1] was 85% and the “Activity of a3b4 with peptide, expressed as a percentage of the reference compound” value ([2]; peptide at 0.2 μM) was 101%. The “Activity of a3b4 with peptide (percentage of the reference compound)” value ([2]; peptide at 20 μM) was 87%, the “Activity of a4b2 with peptide, expressed as a percentage of the reference compound” value ([3]; peptide at 0.2 μM) was 97% and the “Activity of a4b2 with peptide (percentage of the reference compound)” value ([3]; peptide at 20 μM) was 88%. The “Activity of Cav2.1 with peptide, expressed as a percentage of the reference compound” value ([4]; peptide at 0.2 μM) was 92%, the “Activity of Cav2.1 with peptide (percentage of the reference compound)” value ([4]; peptide at 20 μM) was 121% and the “Activity of Cav2.2 with peptide, expressed as a percentage of the reference compound” value ([5]; peptide at 0.2 μM) was 120%. The “Activity of Cav2.2 with peptide (percentage of the reference compound)” value ([5]; peptide at 20 μM) was 102%, the “Activity of Kv2.1 with peptide, expressed as a percentage of the reference compound” value ([6]; peptide at 0.2 μM) was 91% and the “Activity of Kv2.1 with peptide (percentage of the reference compound)” value ([6]; peptide at 20 μM) was 81%. The “Activity of GABA with peptide, expressed as a percentage of the reference compound” value ([7]; peptide at 0.2 μM) was 96%, the “Activity of GABA with peptide (percentage of the reference compound)” value ([7]; peptide at 20 μM) was 114% and the “Activity of Nav1.5 with peptide, expressed as a percentage of the reference compound” value [8, 19] was 94%. For the same substance, the “Activity of Nav1.5 with peptide, expressed as a percentage of the reference compound” value [8, 20] was 95%, the “Activity of Nav1.5 with peptide (percentage of the reference compound)” value [8, 19] was 99% and the “Activity of Nav1.5 with peptide (percentage of the reference compound)” value [8, 20] was 104%. The “Activity of hERG with peptide, expressed as a percentage of the reference compound” value ([9]; peptide at 0.2 μM) was 88%, the “Activity of hERG with peptide (percentage of the reference compound)” value ([9]; peptide at 20 μM) was 78% and the “Activity of Kir2.1 with peptide, expressed as a percentage of the reference compound” value ([10]; peptide at 0.2 μM) was 104%. The “Activity of Kir2.1 with peptide (percentage of the reference compound)” value ([10]; peptide at 20 μM) was 90%, the “Activity of Kv1.1 with peptide, expressed as a percentage of the reference compound” value ([11]; peptide at 0.2 μM) was 65% and the “Activity of Kv1.1 with peptide (percentage of the reference compound)” value ([11]; peptide at 20 μM) was 69%. The “Activity of Kv1.2 with peptide, expressed as a percentage of the reference compound” value ([12]; peptide at 0.2 μM) was 74%, the “Activity of Kv1.2 with peptide (percentage of the reference compound)” value ([12]; peptide at 20 μM) was 83% and the “Activity of Kv1.3 with peptide, expressed as a percentage of the reference compound” value ([13]; peptide at 0.2 μM) was 94%. For the same substance, the “Activity of Kv1.3 with peptide (percentage of the reference compound)” value ([13]; peptide at 20 μM) was 73%, the “Activity of Nav1.7 with peptide, expressed as a percentage of the reference compound” value [14, 21] was 84% and the “Activity of Nav1.7 with peptide, expressed as a percentage of the reference compound” value [14, 22] was 97%. For the same substance, the “Activity of Nav1.7 with peptide (percentage of the reference compound)” value [14, 21] was 80%, the “Activity of Nav1.7 with peptide (percentage of the reference compound)” value [14, 22] was 83% and the “Activity of NR2A with peptide, expressed as a percentage of the reference compound” value ([15]; peptide at 0.2 μM) was 102%. The “Activity of NR2A with peptide (percentage of the reference compound)” value ([15]; peptide at 20 μM) was 100%, the “Activity of NR2B with peptide, expressed as a percentage of the reference compound” value ([16]; peptide at 0.2 μM) was 102% and the “Activity of NR2B with peptide (percentage of the reference compound)” value ([16]; peptide at 20 μM) was 92%. The “Activity of TRPA1 with peptide, expressed as a percentage of the reference compound” value ([17]; peptide at 0.2 μM) was 132%, the “Activity of TRPA1 with peptide (percentage of the reference compound)” value ([17]; peptide at 20 μM) was 107% and the “Activity of TRPV1 with peptide, expressed as a percentage of the reference compound” value ([18]; peptide at 0.2 μM) was 131%. The “Activity of TRPV1 with peptide (percentage of the reference compound)” value ([18]; peptide at 20 μM) was 102%.
